Sequences and labels used below:
B1: CPEB3 Ribozyme (parent)
chain: GGGGGCCACAGCAGAAGCGUUCACGUCGCGGCCCCUGUCAGAUUCUGGUGAAUCUGCGAAUUCUGCUGU

The data set covers variants of B1. Description: self-cleavage, relative activity (ratio to wild type); higher = more cleavage; co-transcriptional.
Turning to UGGGGCCACAGCAGAAGCGUUCACGUCGCGGCCCCUGUCAGAUUCCGGUGAAUCUGCGAAUUCUGCUGU, the self-cleavage was determined as 0.0797.

UGGGGCCACAGCAGAAGCGUACACGUCGCGGCCCCUGUCAGAUUCUGGUGAAUCUGCGAAUUCUGCUGU: the self-cleavage was 0.054.

As to UGGGGCCACAGCAGAAGCGUUCACGUCGCGGCCCCUGUCAGAUUCUGGUGAAUCUGCGAGUUCUGCUGU, the self-cleavage was 0.128.

As for UGGGGCCACAGCAGAAGCGUUCACGUCGCGGCCCCUGUCAGAUUCUGGUGAAUCUGCGAUUUCUGCUGU, the self-cleavage was 0.033.

Consider UGGGGCCACAGCAGAAACGUUCACGUCGCGGCCCCUGUCAGAUUCUGGUGAAUCUGCGAAUUCUGCUGU, for which the self-cleavage came out at 0.0548.

Consider UGGGGCCACAGCAGAACCGUUCACGUCGCGGCCCCUGUCAGAUUCUGGUGAAUCUGCGAAUUCUGCUGU, for which the self-cleavage stood at 0.0433.

For the variant UGGGGCCACAGCAGAAGCGUUCACGUCGCGGCCCCUGUCAGAUUCUGGUGAAUCUGCGAAUUCUGUUGU, the self-cleavage turned out to be 0.127.

With UGGGGCCACAGCAGAAGCGUUCACGUCGCGGCCCCUGUCAGAUUCUGGUAAAUCUGCGAAUUCUGCUGU, the self-cleavage was found to be 0.139.

In the case of UGGGGCCACAGCAGAAGCGUUCACGUCGCGGCCCCUGUCAGAUUCUGGUGAAUCUACGAAUUCUGCUGU, the self-cleavage amounted to 0.111.

As to UGGGGCCACAGCAGAAGCCUUCACGUCGCGGCCCCUGUCAGAUUCUGGUGAAUCUGCGAAUUCUGCUGU, the self-cleavage was 0.0611.

In the case of UGGGGCCACAGCAGAAGCUUUCACGUCGCGGCCCCUGUCAGAUUCUGGUGAAUCUGCGAAUUCUGCUGU, the self-cleavage amounted to 0.0505.

In the case of CGGGGCCACAGCAGAAGCGUUCACGUCGCGGCCCCUGUCAGAUUCUGGUGAAUCUGCGAAUCCUGCUGU, the self-cleavage was found to be 0.264.

As for UGGGGCCGCAGCAGAAGCGUUCACGUCGCGGCCCCUGUCAGAUUCUGGUGAAUCUGCGAAUUCUGCUGU, the self-cleavage is 0.0916.

As for CGGGGCCACAGCAGAAGCGUUCACGACGCGGCCCCUGUCAGAUUCUGGUGAAUCUGCGAAUUCUGCUGU, the self-cleavage is 0.165.

For CGGGGCCACAGCAGAAGCGUUCACGUCGCGGCCCCUGUCAGAUUCUGGAGAAUCUGCGAAUUCUGCUGU, the self-cleavage turned out to be 0.287.

Take UGGGGCCACAGCAGAAGCGUUCACCUCGCGGCCCCUGUCAGAUUCUGGUGAAUCUGCGAAUUCUGCUGU: the self-cleavage amounted to 0.0418.

UGGGGCCACAGCAGAAGCGUUCACUUCGCGGCCCCUGUCAGAUUCUGGUGAAUCUGCGAAUUCUGCUGU: the self-cleavage was 0.0227.

Consider UGGGGCCACAGCAGAAGCGUUCACAUCGCGGCCCCUGUCAGAUUCUGGUGAAUCUGCGAAUUCUGCUGU, for which the self-cleavage was found to be 0.0632.

UGGGGCCACAGCAGAAGCGUUCACGGCGCGGCCCCUGUCAGAUUCUGGUGAAUCUGCGAAUUCUGCUGU: the self-cleavage came out at 0.0529.

For the variant UGGGGCCACAGCAGAAGCGUUCACGACGCGGCCCCUGUCAGAUUCUGGUGAAUCUGCGAAUUCUGCUGU, the self-cleavage was 0.0674.

Regarding UGGGGCCACAGCAGAAGCGUUCACGUCGCGGCCUCUGUCAGAUUCUGGUGAAUCUGCGAAUUCUGCUGU, the self-cleavage was 0.147.

Consider UGGGGCCACAGCAGAUGCGUUCACGUCGCGGCCCCUGUCAGAUUCUGGUGAAUCUGCGAAUUCUGCUGU, for which the self-cleavage came to 0.103.

Consider UGGGGCCACAGCAGAGGCGUUCACGUCGCGGCCCCUGUCAGAUUCUGGUGAAUCUGCGAAUUCUGCUGU, for which the self-cleavage stood at 0.108.

Consider CGGGGCCACAGCAGAAGCGUUCACGUCGCGGCCCCUGUCAGAUUCUGGUGAAUCGGCGAAUUCUGCUGU, for which the self-cleavage worked out at 0.135.

For the variant UGGGGCCACAGCAGAAGCGUUCACGUCGCGGCCCGUGUCAGAUUCUGGUGAAUCUGCGAAUUCUGCUGU, the self-cleavage worked out at 0.0241.

On to UGGGGCCACAGCAGAAGCGUUCGCGUCGCGGCCCCUGUCAGAUUCUGGUGAAUCUGCGAAUUCUGCUGU, for which the self-cleavage was 0.141.

As to UGGGGCCACAGCAGAAGCGUUCCCGUCGCGGCCCCUGUCAGAUUCUGGUGAAUCUGCGAAUUCUGCUGU, the self-cleavage turned out to be 0.171.

Consider UGGGACCACAGCAGAAGCGUUCACGUCGCGGCCCCUGUCAGAUUCUGGUGAAUCUGCGAAUUCUGCUGU, for which the self-cleavage is 0.101.

For the variant UGGGUCCACAGCAGAAGCGUUCACGUCGCGGCCCCUGUCAGAUUCUGGUGAAUCUGCGAAUUCUGCUGU, the self-cleavage was determined as 0.0243.

With CGGGGCCACAGCAGAAGCGUUCACGUCGCGGCCCCUGUCAGAUUCGGGUGAAUCUGCGAAUUCUGCUGU, the self-cleavage is 0.234.

Regarding CGGGGCCACAGCAGAAGCGUUCACGUCGCGGCCCCUGUCAGAUUCAGGUGAAUCUGCGAAUUCUGCUGU, the self-cleavage was determined as 0.208.

On to UGGGGCCACCGCAGAAGCGUUCACGUCGCGGCCCCUGUCAGAUUCUGGUGAAUCUGCGAAUUCUGCUGU, for which the self-cleavage is 0.186.

As for UGGGGCCACGGCAGAAGCGUUCACGUCGCGGCCCCUGUCAGAUUCUGGUGAAUCUGCGAAUUCUGCUGU, the self-cleavage came out at 0.0897.

For UGGGGCCACAGCAGAAGCGUUCACGUCGCGGCCCCUCUCAGAUUCUGGUGAAUCUGCGAAUUCUGCUGU, the self-cleavage worked out at 0.0508.

With UGGGGCCACAGCAGAAGCGUUCACGUCGCGGCCCCUUUCAGAUUCUGGUGAAUCUGCGAAUUCUGCUGU, the self-cleavage was determined as 0.0468.

As for UGGGGCCAAAGCAGAAGCGUUCACGUCGCGGCCCCUGUCAGAUUCUGGUGAAUCUGCGAAUUCUGCUGU, the self-cleavage came out at 0.181.

In the case of UGGGGCCACAGCAGAAGCGUUCACGUCGCAGCCCCUGUCAGAUUCUGGUGAAUCUGCGAAUUCUGCUGU, the self-cleavage was determined as 0.0902.

For the variant UGGGGCCACAGCAGAAGCGUUCACGUCGCGGCGCCUGUCAGAUUCUGGUGAAUCUGCGAAUUCUGCUGU, the self-cleavage turned out to be 0.102.

Take UGGGGCCACAGCAGAAGCGUUCACGUCGCGGCUCCUGUCAGAUUCUGGUGAAUCUGCGAAUUCUGCUGU: the self-cleavage turned out to be 0.214.

Source of the values: the RNAGym collection of RNA variant scans (doi:10.7554/elife.80360).
